# Test results as given in publication doi:10.1101/479162v2.
# Positions count from the first letter of the chain named. Numbers in names are those of the source.
# B1: SpAS1 (arylsulfatase 1 from Silicibacter pomeroyi DSS-3), purified (Ruegeria pomeroyi DSS-3) (protein)
# chain: MTQNRNILWIMCDQLRFDYLSCYGHERLNTPNIDKLAKRGVRFTNAYVQATVCGPSRMSAYTGRYVRSHGSTQNGIPLRVGEPTLGDHLRDVGMRNVLIGKTHMRPDLDGMKRLGIDPDSEIGARVGEGGFDAFDRDDGVHPTGYRKKEPAYNDYLRHAGFQAENPWEFWANSAEGKGGENQSGWLLTHADKPARVPEEHSETAYMTRRAMEFMEAAEKDGRPWCAHLSYIKPHWPYIVPAPYHDMFGPDDVKPAVRSDEELKAAHPLFKAMTEEVYSRNFARDEVREKVIPAYMGLIKQIDDQLGQLFAFMQERGLDENTMIVFTADHGDYLGDHWMGEKYLFYEAAAKVPLIIYDPSDKADATRGTVSDALVEMIDLAPTFVDYAGGVPPMHILEGKSLLPLLHDDDSSWDRQYVFSELDYSNLPARLKLGRDIQDCRATMVFDGRYKLVEVMGFAPILFDLEVDPDELKDLGRDPSAEEVRQRLTSALDAWHRNTRQRITKSDAAYRALDPVLRESDPDLMAGVIIGYWDEDEVEAEKRRIARILGENS
# B2: SpAS1 (arylsulfatase 1 from Silicibacter pomeroyi DSS-3), purified (Ruegeria pomeroyi DSS-3; K147E/M111T) (protein)
# chain: B1 chain with M111T, K147E
# B3: SpAS1 (arylsulfatase 1 from Silicibacter pomeroyi DSS-3), purified (Ruegeria pomeroyi DSS-3; R429Q) (protein)
# chain: B1 chain with R429Q
# Tests used:
# Details in all cases: KSI (substrate inhibition) also fitted
# [1] = substrate: O=C1OC2(c3ccc(OS(=O)(=O)O)cc3Oc3cc(OS(=O)(=O)O)ccc32)c2ccccc21; assay: fluorescence, Michaelis-Menten kinetics of purified enzyme; format: biochemical, Ruegeria pomeroyi
# purified protein [2] = substrate: O=[N+]([O-])c1ccc(OS(=O)(=O)O)cc1; assay: purified protein
# purified protein [3] = substrate: O=C1OC2(c3ccc(OS(=O)(=O)O)cc3Oc3cc(OS(=O)(=O)O)ccc32)c2ccccc21; assay: purified protein
Protein,Km [1],kcat [1],Km (purified protein [2]),kcat (purified protein [2]),Km (purified protein [3]),kcat (purified protein [3])
B1,4.5 ± 0.5 mM,0.116 ± 0.004 s⁻¹,7.1 ± 1.7 mM,34 ± 5 s⁻¹,–,–
B2,–,–,3.4 ± 0.3 mM,100 ± 4 s⁻¹,2.4 ± 0.2 mM,0.074 ± 0.002 s⁻¹
B3,1.0 ± 0.1 mM,0.77 ± 0.04 s⁻¹,7.3 ± 1.5 mM,26 ± 3 s⁻¹,–,–
